Data on nine molecules can be found in patent US20240043504A1 (published 2024).

Assay [1] has as its target SARS-CoV-2 Spike Protein (RBD)(R319-F541).mFc (SARS-CoV-2). The experiment in a line: Luminex, supernatant.
The target in assay [2] is SARS-CoV-2 Spike Protein (RBD)(R319-F541).hFc (SARS-CoV-2). The assay can be described thus: Luminex, supernatant.
Assay [3] addresses Human SARS Coronavirus Spike S1 Subunit Protein (His Tag) (Sino 40150-V08B1) (Human SARS Coronavirus, UniProt P59594 14-667). The experiment in a line: Luminex, supernatant.
In assay [4] the target is T1, MERS-CoV Spike Protein (ECD, aa 1-1297, His Tag) (Sino 40069-[change]) (MERS-CoV, UniProt K9N5Q8 18-1297).
T1 sequence: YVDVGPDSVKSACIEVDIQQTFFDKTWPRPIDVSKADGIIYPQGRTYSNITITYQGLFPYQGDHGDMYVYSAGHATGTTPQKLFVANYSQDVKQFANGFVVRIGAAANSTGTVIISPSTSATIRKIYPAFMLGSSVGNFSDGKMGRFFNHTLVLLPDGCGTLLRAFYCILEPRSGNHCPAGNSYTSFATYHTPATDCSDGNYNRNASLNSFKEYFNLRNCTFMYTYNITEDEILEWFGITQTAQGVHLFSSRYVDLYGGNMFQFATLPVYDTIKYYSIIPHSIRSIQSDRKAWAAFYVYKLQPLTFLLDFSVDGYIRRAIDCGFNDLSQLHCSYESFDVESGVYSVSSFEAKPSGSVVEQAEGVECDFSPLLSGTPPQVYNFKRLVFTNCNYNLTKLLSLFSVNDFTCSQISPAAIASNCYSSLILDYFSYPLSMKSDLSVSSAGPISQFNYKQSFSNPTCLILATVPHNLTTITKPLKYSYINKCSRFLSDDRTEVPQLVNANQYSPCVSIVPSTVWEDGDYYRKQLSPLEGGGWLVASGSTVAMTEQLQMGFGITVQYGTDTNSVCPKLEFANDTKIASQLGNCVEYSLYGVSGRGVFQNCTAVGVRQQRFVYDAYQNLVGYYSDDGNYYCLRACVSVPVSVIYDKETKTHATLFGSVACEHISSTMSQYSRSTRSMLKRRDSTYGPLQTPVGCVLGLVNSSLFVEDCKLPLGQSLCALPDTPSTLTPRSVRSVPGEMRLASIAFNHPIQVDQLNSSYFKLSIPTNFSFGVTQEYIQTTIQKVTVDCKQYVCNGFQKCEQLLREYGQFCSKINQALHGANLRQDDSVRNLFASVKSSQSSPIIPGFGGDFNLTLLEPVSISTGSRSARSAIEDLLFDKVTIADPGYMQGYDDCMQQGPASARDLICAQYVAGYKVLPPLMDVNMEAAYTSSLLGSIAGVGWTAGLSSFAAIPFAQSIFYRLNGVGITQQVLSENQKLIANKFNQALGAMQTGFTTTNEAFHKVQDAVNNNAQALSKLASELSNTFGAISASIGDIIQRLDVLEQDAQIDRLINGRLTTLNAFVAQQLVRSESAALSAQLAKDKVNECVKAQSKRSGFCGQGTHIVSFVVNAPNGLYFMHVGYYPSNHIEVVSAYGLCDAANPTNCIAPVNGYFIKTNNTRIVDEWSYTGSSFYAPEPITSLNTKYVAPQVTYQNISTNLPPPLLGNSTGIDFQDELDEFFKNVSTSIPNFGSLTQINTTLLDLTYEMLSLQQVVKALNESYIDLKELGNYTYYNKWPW
The assay can be described thus: Luminex, supernatant.

Assay [5] addresses T2, MERS-CoV Spike Protein S2 (aa 726-1296, His Tag) (Sino 40070-[change]) (MERS-CoV, UniProt K9N5Q8 726-1296).
T2 sequence: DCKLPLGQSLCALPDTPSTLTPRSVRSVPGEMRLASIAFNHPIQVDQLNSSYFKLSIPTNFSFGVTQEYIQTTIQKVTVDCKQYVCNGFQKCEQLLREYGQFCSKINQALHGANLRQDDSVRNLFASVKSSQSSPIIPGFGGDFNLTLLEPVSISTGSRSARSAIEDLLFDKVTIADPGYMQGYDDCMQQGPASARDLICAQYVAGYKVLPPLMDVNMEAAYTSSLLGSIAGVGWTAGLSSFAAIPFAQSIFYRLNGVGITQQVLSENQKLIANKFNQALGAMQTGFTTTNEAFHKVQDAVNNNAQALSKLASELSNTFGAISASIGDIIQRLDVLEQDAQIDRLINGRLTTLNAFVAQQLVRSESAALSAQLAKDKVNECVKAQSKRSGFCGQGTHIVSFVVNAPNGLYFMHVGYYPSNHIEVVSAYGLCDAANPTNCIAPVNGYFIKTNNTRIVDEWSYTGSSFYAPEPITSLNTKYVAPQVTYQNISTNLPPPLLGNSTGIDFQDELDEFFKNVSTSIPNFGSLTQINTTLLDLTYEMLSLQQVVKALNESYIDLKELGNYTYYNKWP
The experiment in a line: Luminex, supernatant.

Assay [6] concerns the target T3, MERS-CoV (NCoV/Novel coronavirus) Spike Protein fragment (RBD, aa 367-606, His Tag) (Sino 40071-V08B1) (MERS-CoV, UniProt K9N5Q8 367-606).
T3 sequence: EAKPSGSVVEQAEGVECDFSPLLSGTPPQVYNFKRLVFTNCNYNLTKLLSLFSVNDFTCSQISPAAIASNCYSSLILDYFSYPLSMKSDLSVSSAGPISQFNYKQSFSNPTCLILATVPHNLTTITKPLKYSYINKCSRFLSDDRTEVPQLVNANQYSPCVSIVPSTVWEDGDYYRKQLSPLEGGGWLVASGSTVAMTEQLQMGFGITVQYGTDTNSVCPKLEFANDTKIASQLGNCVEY
The assay can be described thus: Luminex, supernatant.

For assay [7], the target named is T4, MERS-CoV (NCoV/Novel coronavirus) Spike Protein S1 Protein (aa 1-725, His Tag) (Sino 40069-V08B1) (MERS-CoV, UniProt K9N5Q8 18-725).
T4 sequence: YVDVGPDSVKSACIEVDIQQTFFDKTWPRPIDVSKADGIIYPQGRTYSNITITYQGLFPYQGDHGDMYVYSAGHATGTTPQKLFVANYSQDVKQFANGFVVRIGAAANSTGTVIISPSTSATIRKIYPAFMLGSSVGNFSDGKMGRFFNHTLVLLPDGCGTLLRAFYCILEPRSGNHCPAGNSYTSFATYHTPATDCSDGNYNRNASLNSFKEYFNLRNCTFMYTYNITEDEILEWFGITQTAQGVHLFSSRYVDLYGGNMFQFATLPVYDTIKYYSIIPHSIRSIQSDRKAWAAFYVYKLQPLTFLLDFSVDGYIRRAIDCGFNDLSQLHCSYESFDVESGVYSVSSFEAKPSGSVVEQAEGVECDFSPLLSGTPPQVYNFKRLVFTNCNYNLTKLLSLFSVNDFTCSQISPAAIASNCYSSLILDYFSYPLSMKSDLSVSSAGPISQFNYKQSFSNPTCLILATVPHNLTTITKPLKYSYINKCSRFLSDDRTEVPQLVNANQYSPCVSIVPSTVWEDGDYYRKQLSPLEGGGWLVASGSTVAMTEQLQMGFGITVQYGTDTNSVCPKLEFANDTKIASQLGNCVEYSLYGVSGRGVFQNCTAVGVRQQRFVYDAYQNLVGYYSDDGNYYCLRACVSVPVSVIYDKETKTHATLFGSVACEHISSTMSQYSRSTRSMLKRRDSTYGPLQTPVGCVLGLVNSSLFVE
The experiment in a line: Luminex, supernatant.

Assay [8] addresses Human SARS Coronavirus Spike S1 Subunit Protein (His Tag) (Sino 40150-V08B1) (Human SARS Coronavirus, UniProt P59594 14-667). The assay can be described thus: Luminex bead binding, supernatant.

B1: mAb10984 (antibody, V domains shown)
VH: EVQLVESGGGLVQPGGSLRLSCAASGLTVNRNYMSWVRQAPGKGLEWVSLIYSGGSTYYADSVKGRFTISRDNSKNTLYLQMNSLRLEDTAVYYCARGELGIPYGMDVWGQGTTVTVSS
VL: QSVLTQPPSVSAAPGQKVTISCSGSSSNIGNNYVSWYQQLPGTAPKLLIYDNNKRPSGIPDRFSGSKSGTSATLGITGLQTGDEADYYCGTWDSSLSAGVFGGGTKLTVLG
For B1, the MFI in assay [1] stood at 28400 MFI; in assay [2], 28400 MFI; in assay [3], 22 MFI; in assay [4] it was 21 MFI; in assay [5], 25 MFI; in assay [6] it was 29 MFI. In assay [7], this molecule gave an MFI of 20 MFI.

B2: mAb10923 (antibody, V domains shown)
VH: QVQLVQSGAEVKKPGASVKVSCKASGYTFINYYIHWVRQAPGQGLEWMGWINPNSGGTNYAQKFQGRVTMTRDTSISTAYMELSRLRSDDTAVYYCAIITIFGVVTWFDPWGQGTLVTVSS
VL: not shown
In the case of B2, the MFI came to 37400 MFI in assay [1]; 37800 MFI in assay [2]; 29 MFI in assay [3]; 23 MFI in assay [4]; 36 MFI in assay [5]; 37 MFI in assay [6]. The molecule further showed an MFI in assay [7] of 25 MFI.

B3: mAb10930 (antibody, V domains shown)
VH: EVQLVESGGGLVQPGRSLRLSCAASGFTFDDYAMYWVRQAPGKGLEWVSGISWNSGSIGYADSVKGRFTISRDNAKNSLYLQMNSLRAADTALYYCAKDKDWNSRGYYYYGMDVWGQGTTVTVSS
VL: not shown
As for B3, the MFI was determined as 28600 MFI in assay [1]; 28900 MFI in assay [2]; 19 MFI in assay [3]; 16 MFI in assay [4]; 20 MFI in assay [5]; 27 MFI in assay [6]. The molecule further displayed an MFI in assay [7] of 22 MFI.

B4: mAb10938 (antibody, V domains shown)
VH: EVQLVESGGGLVQPGGSLRLSCAVSGFTVSSNYMSWVRQAPGKGLEWVSLIYSGGSTFYADSVKGRFTISRHNSKNTLYLQMNSLRAEDTAVYYCAREGGYSYDYNYWGQGTLVTVSS
VL: DIQMTQSPSSLSASVGDRVTITCQASQDIRNYLNWYQQKPGKAPKLLIYDASNLETGVPSRFSGIGSGTDFTFTISSLQPEDIATYYCQQYDNLPITFGQGTRLEIKR
For B4, the MFI is 30500 MFI in assay [1]; 29600 MFI in assay [2]; 19 MFI in assay [3]; 16 MFI in assay [4]; 19 MFI in assay [5]; 25 MFI in assay [6]. This molecule showed an MFI in assay [7] of 20 MFI.

B5: mAb10989 (antibody, V domains shown)
VH: QVQLVQSGAEVKKPGASVKVSCKASGYIFTGYYMHWVRQAPGQGLEWMGWINPNSGGANYAQKFQGRVTLTRDTSITTVYMELSRLRFDDTAVYYCARGSRYDWNQNNWFDPWGQGTLVTVSS
VL: QSALTQPASVSGSPGQSITISCTGTSSDVGTYNYVSWYQQHPGKAPKLMIFDVSNRPSGVSDRFSGSKSGNTASLTISGLQAEDEADYYCSSFTTSSTVVFGGGTKLTVLG
Take B5: the “Binding signal (MFI)” value in assay [8] was 21 MFI.

B6: mAb10966 (antibody, V domains shown)
VH: EVQLVESGGGLVQPGGSLRLSCAASGLTVSSNYMSWVRQAPGKGLEWVSVIYSGGSTFYADSVKGRFTISRDNSKNTLYLQMNSLRPEDTAVYYCAREGRIAATGYGMDVWGQGTTVTVSS
VL: not shown
Take B6: in assay [8], the “Binding signal (MFI)” value came out at 20 MFI.

B7: mAb10965 (antibody, V domains shown)
VH: EVQLVESGGGLIQPGGSLRLSCAASVFTVSYNYMSWVRQAPGKGLEWVSVIYSGGSTYYADSVKGRFTISRDNSKNTLYLQMNSLRAEDTAVYYCARALPGWGGSFEYFDYWGQGTLVTVSS
VL: not shown
For the molecule B7, the “Binding signal (MFI)” value in assay [8] worked out at 16 MFI.

B8: mAb10937 (antibody, V domains shown)
VH: QITLKESGPTLVKPTQTLTLTCTFSGFSLSTNVVGVGWIRQPPGKALEWLALIYWNDDKRYSPSLKSRLTITKDTSKNQVVLTMTNMDPVDTATYYCAHGPTGDYFDYWGQGTLVTVSS
VL: not shown
Regarding B8, the MFI was found to be 34200 MFI in assay [1]; 34600 MFI in assay [2]; 21 MFI in assay [3]; 19 MFI in assay [4]; 26 MFI in assay [5]; 27 MFI in assay [6]. The molecule further came in with an MFI in assay [7] of 22 MFI.

B9: mAb10920 (antibody, V domains shown)
VH: QVQLVESGGGVVQPGRSLRLSCAASGFTFSYYGMHWVRQAPGKGLEWVAVIWYDGSNKFYADSVKGRFTISRDNSKNTLYLQMNSLRAEDTAVYYCAAARPGYYYGMDVWGQGTTVTVSS
VL: DIQMTQSPSSLSASVGDRVTITCRASQGISNYLAWFQQKPGKAPNSLIYAASSLQRGVPSKFSGSGSGTDFTLTISSLQPEDFATYYCQQYNSYPRTFGQGTKVEIKR
As to B9, the MFI in assay [1] was 36400 MFI; in assay [2] it was 36800 MFI; in assay [3], 26 MFI; in assay [4] it was 24 MFI; in assay [5], 30 MFI; in assay [6], 39 MFI. Moreover, in assay [7], the MFI amounted to 27 MFI.
